Biological target: the molecule itself
Experiment: SEC-MALS; Superdex 200 5/150 GL, 20 mM HEPES pH 7.5, 300 mM NaCl, 10 % glycerol, 2 mM TCEP; 20 µl of 6 mg/ml VP22core injected, 0.3 ml/min

B1: VP22 core domain (conserved C-terminal domain) from Herpes simplex virus 1, residues 174-281 (domain or fragment)
chain: RKLHFSTAPPNPDAPWTPRVAGFNKRVFCAAVGRLAAMHARMAAVQLWDMSRPRTDEDLNELLGITTIRVTVCEGKNLLQRANELVNPDVVQDVDAATATRGRSAASR
notes: VP22 tegument protein of Herpes simplex virus 1 (Human herpesvirus 1), GenBank BAE87004.1, residues 174-281; electron density seen for residues 174-260 plus three amino acids of the N-terminal tag; The tag was not removed: the monomer mass of 14 551 g/mol includes the purification tag and the TEV site; source: bacterial cells, purified (HisTrap HP, Superdex 75 size exclusion); not shown: His6, …
stoichiometry N: 2
